Paper PMC7967050 (2021)

Biological target: Recombinant human CD38 extracellular domain (amino acids 43–300, hCD38-ECD) (human, UniProt P28907 43-300, biotin (EZ-Link NHS-PEG4-biotin) for panning and for capture on the SA biosensor; not said for the cross-linking)
Assay: BLI

B1: anti-CD38 scFv antibody RP02 (scFv, V domains shown)
VH: PAQLVESGPGLVKPSGTLSLTCAVSGGSISSSNWWSWVRQPPGKGLEWIGEIYHSGSTNYNPSLKSRVTISVDKSKNQFSLKLSSVTAADTAVYYCAREDYYYYMDVWGKGTTVTVQS
VL: QSVLTQPPSVSAAPGQKVTISCSGSSSNIGNNYVSWYQQLPGTAPKLLIYDNNKRPSGIPDRFSGSKSGTSATLGITGLQTGDEADYYCGTWDSSLSAGVFGGGTKLTVL
In the case of B1, the koff is reported as 0.0034 s⁻¹.

B2: high-affinity anti-CD38 antibody 028 (scFv) (scFv, V domains shown)
VH: QVQLVQSGAEVKKPGSSVKVSCKAFGGTFSSYAISWVRQAPGQGLEWMGRIIRFLGIANYAQKFQGRVTLIADKSTNTAYMELSSLRSEDTAVYYCAGEPGERDPDAVDIWGQGTMVTVSS
VL: DIQMTQSPSSLSASVGDRVTITCRASQGIRSWLAWYQQKPEKAPKSLIYAASSLQSGVPSRFSGSGSGTDFTLTISSLQPEDFATYYCQQYNSYPLTFGGGTKVEIK
B2 was tested, and the koff was 0.00012 s⁻¹.
